Patent US20200317776A1 (published 2020)

T1: human TREM2 Fc fusion (entire TREM2 ECD; only one Fc arm fused to TREM2) (human, UniProt Q9NZC2 19-174)
T1 construct: also called huTREM2-Fc; recombinant hTREM2
T1 sequence: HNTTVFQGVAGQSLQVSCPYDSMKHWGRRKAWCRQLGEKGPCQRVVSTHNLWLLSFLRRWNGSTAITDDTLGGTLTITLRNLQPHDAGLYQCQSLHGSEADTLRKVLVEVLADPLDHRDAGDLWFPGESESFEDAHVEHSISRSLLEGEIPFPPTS

T2: human TREM2 expressed on cells (human, UniProt Q9NZC2 19-230)
T2 construct: BW5147.G.1.4 cells stably expressing human TREM2 together with Dap12, or endogenous TREM2 of primary human myeloid cells; also called huT2 BW; hTREM2 expressing cell line
T2 sequence: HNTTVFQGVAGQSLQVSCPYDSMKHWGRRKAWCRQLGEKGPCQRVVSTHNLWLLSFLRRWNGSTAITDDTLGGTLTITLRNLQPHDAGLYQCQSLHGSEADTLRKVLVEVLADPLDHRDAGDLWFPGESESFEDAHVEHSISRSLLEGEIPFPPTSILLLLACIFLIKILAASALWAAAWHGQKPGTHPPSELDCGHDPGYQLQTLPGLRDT

T3: cynomolgus monkey TREM2 Fc fusion (entire TREM2 ECD; only one Fc arm fused to TREM2) (cynomolgus monkey, UniProt Q9NZC2 19-174 (human entry))
T3 construct: also called cyno TREM2-Fc
T3 chain: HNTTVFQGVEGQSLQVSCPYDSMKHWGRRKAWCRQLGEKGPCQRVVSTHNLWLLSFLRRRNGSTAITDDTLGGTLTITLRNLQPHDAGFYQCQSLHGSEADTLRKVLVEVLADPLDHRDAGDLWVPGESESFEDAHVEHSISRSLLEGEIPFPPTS


Legend:
[1] = molecular target: human TREM2/DAP12 fusion protein (human, UniProt O43914 41-113, limits assumed); assay: cell-based or functional assay
human TREM2/DAP12 fusion protein, sequence (O43914 other isoform, or with tags, fused parts or gaps limits assumed): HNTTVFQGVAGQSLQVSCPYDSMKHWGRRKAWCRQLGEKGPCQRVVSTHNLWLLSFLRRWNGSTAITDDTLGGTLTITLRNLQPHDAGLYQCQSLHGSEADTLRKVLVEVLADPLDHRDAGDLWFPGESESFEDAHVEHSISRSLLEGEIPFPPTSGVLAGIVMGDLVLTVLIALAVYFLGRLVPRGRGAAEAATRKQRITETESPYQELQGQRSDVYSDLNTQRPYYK

[2] = molecular target: T1, human TREM2 Fc fusion (entire TREM2 …); assay: BLI, IgG, avid
Protocol: Briefly, IgGs were loaded on-line onto AHQ sensors, Sensors were equilibrated off-line in assay buffer for 30 minutes and then monitored on-line for 60 seconds for baseline establishment. For avid binding measurement, sensors with loaded IgGs were exposed to 100 nM antigen (human or cynomolgus monkey TREM2 Fe fusion using the entire TREM2 ECD; only one Fc arm was fused to TREM2) for 3 minutes, afterwards they were transferred to assay buffer for 3 minutes for off-rate measurement. Monovalent binding measurements were obtained by loading human TREM2 Fc fusion antigens to AHQ sensor and followed by exposure to 100 nM TREM2 antibody Fab. Kinetics data were fit using a 1:1 binding model in the data analysis software provided by ForteBio. Assay was run at room temperature (25° C.).

[3] = molecular target: T2, human TREM2 expressed on cells; assay: FACS, hTREM2 BW cells
Excerpt: To examine cell binding of affinity matured anti-TREM2 antibodies, both primary human monocyte derived dendritic cells and recombinant, human TREM2 expressing cells were utilized. For the latter, BW5147.G.1.4 (ATCC® TIB48™) and HEK293T cells stably expressing human TREM2 together with Dap12 using viral infection were established. For primary human monocyte derived dendritic cells, human monocytes were isolated from whole blood using RosetteSep Human monocyte enrichment cocktail (Stemcell technologies) and Ficoll centrifugation per manufacturer protocols. After lysing red blood cells with ACK lysing buffer, monocytes were resuspended in complete media (RPMI, 10% FBS, Pen/Strep, L-glutamine, HEPES, non-essential amino acid, Sodium pyruvate) with 100 ng/ml human GM-CSF (hu-GMCSF) and, human IL-4 (hu-IL-4) to differentiate dendritic cells for 6 days.
Cells were harvested by trypsinization (Hek293T) or scraping (BW and dendritic cells), washed in PBS, counted and plated on 96-well U bottom plates at […] cells/well. The plates were spun at 1,400 rpm for 3 minutes and primary TREM2 or control antibodies were added in FACS buffer (PBS+2% FBS) and incubated on ice for one hour. Cells were subsequently centrifuged as before and washed thrice with FACS buffer. Cells were then incubated with anti-human PE conjugated secondary antibody (BD Biosciences) in FACS buffer for 30 minutes on ice. Cells were again washed thrice with FACS buffer and analyzed on a BD FACS Canto or an Intellicyt Flow Cytometer. Binding was measured as mean fluorescence intensity in the APC channel.

[4] = molecular target: T1, human TREM2 Fc fusion (entire TREM2 …); assay: BLI, Fab, monovalent
[5] = molecular target: T3, cynomolgus monkey TREM2 Fc fusion …; assay: BLI, Fab, monovalent

Row | Luciferase activation plate bound 33 nM IgG, FOC [1] [FOC] | Luciferase activation soluble 10 nM IgG, FOC [1] [FOC] | Kd [2] [nM] | Kd [3] [nM] | Kd [4] [nM] | Kd [5] [nM] | Binder
1 | 18.9 | 2.35 | 0.427 | 1.6 | 8.38 | 8.95 | AL2p-7 (antibody, V domains shown, Fab and IgG formats under one id) VH: QVQLVQSGAEVKKPGSSVKVSCKASGYAFSLSWMNWVRQAPGQGLEWMGRIYPGDGDTNYAQKFRGRVTITADESTSTAYMELSSLRSEDTAVYYCARLLRNQPGESYAMDYWGQGTLVTVSS VL: GVVMTQTPLSLSVTPGQPASISCRSSQSLIHSNGYTYLHWYLQKPGQSPQLLIYKVSNRRSGVPDRFSGSGSGTDFTLKISRVEAEDVGVYYCSQSTRVPYTFGQGTKLEIK
2 | 8.46 | 2.06 | 0.229 | 1.3 | 3.17 | 2.73 | AL2p-18 (antibody, V domains shown, Fab and IgG formats under one id) VH: QVQLVQSGAEVKKPGSSVKVSCKASGYAFSSHWMNWVRQAPGQGLEWMGRIYPGDGDTNYAQKWQGRVTITADESTSTAYMELSSLRSEDTAVYYCARLLRNQPGSSYAMDYWGQGTLVTVSS VL: GVVMTQTPLSLSVTPGQPASISCRTSQSLVHSNGYTYLHWYLQKPGQSPQLLIYKVSNRVSGVPDRFSGSGSGTDFTLKISRVEAEDVGVYYCSQSTRVPYTFGQGTKLEIK
3 | 4.63 | 1.6 | 0.835 | 3.1 | 18.5 | 27.7 | AL2p-10 (antibody, V domains shown, Fab and IgG formats under one id) VH: QVQLVQSGAEVKKPGSSVKVSCKASGYAFSSDWMNWVRQAPGQGLEWMGRIYPGDGDTNYAQKFQGRVTITADESTSTAYMELSSLRSEDTAVYYCARLLRNQPGESYAMDYWGQGTLVTVSS VL: GVVMTQTPLSLSVTPGQPASISCRSSQSLVHSNGYTYLHWYLQKPGQSPQLLIYKVSNRRSGVPDRFSGSGSGTDFTLKISRVEAEDVGVYYCSQSTRVPYTFGQGTKLEIK
4 | 23.6 | 1.71 | 0.536 | 2.4 | 9.83 | 10.2 | AL2p-11 (antibody, V domains shown, Fab and IgG formats under one id) VH: QVQLVQSGAEVKKPGSSVKVSCKASGYAFSSDWMNWVRQAPGQGLEWMGRIYPGDGDTNYARKFQGRVTITADESTSTAYMELSSLRSEDTAVYYCARLLRNQPGESYAMDYWGQGTLVTVSS VL: DVVMTQTPLSLSVTPGQPASISCRSSRSLVHSNGYTYLHWYLQKPGQSPQLLIYKVSNRVSGVPDRFSGSGSGTDFTLKISRVEAEDVGVYYCSQSTRVPYTFGQGTKLEIK
5 | 25.9 | 2.06 | 0.303 | 1.4 | 4.02 | 4.01 | AL2p-19 (antibody, V domains shown, Fab and IgG formats under one id) VH: QVQLVQSGAEVKKPGSSVKVSCKASGYAFSSHWMNWVRQAPGQGLEWMGRIYPGDGDTNYARKFQGRVTITADESTSTAYMELSSLRSEDTAVYYCARLLRNQPGESYAMDYWGQGTLVTVSS VL: DVVMTQTPLSLSVTPGQPASISCRSSRSLVHSNGYTYLHWYLQKPGQSPQLLIYKVSNRVSGVPDRFSGSGSGTDFTLKISRVEAEDVGVYYCSQSTRVPYTFGQGTKLEIK
6 | 27.1 | 1.79 | 0.315 | 2.1 | 4.74 | 4.66 | AL2p-14 (antibody, V domains shown, Fab and IgG formats under one id) VH: QVQLVQSGAEVKKPGSSVKVSCKASGYAFSSHWMNWVRQAPGQGLEWMGRIYPGDGDTNYAQKFQGRVTITADESTSTAYMELSSLRSEDTAVYYCARLLRNQPGESYAMDYWGQGTLVTVSS VL: GVVMTQTPLSLSVTPGQPASISCRSSRSLVHSNGYTYLHWYLQKPGQSPQLLIYKVSNRFSGVPDRFSGSGSGTDFTLKISRVEAEDVGVYYCSQSTRVPYTFGQGTKLEIK
7 | 15.8 | 1.96 | 0.514 | 1.8 | 5.86 | 5.25 | AL2p-12 (antibody, V domains shown, Fab and IgG formats under one id) VH: QVQLVQSGAEVKKPGSSVKVSCKASGYAFSSHWMNWVRQAPGQGLEWMGRIYPGDGDTNYAHKFQGRVTITADESTSTAYMELSSLRSEDTAVYYCARLLRNQPGESYAMDYWGQGTLVTVSS VL: GVVMTQTPLSLSVTPGQPASISCRSSQSLVHSNGYTYLHWYLQKPGQSPQLLIYKVSNRRSGVPDRFSGSGSGTDFTLKISRVEAEDVGVYYCSQSTRVPYTFGQGTKLEIK
8 | 22.4 | 2.12 | 0.35 | 1.2 | 4.73 | 4.72 | AL2p-20 (antibody, V domains shown, Fab and IgG formats under one id) VH: QVQLVQSGAEVKKPGSSVKVSCKASGYAFSSHWMNWVRQAPGQGLEWMGRIYPGDGDTNYARKFQGRVTITADESTSTAYMELSSLRSEDTAVYYCARLLRNQPGESYAMDYWGQGTLVTVSS VL: GVVMTQTPLSLSVTPGQPASISCRTSQSLVHSNGYTYLHWYLQKPGQSPQLLIYKVSNRVSGVPDRFSGSGSGTDFTLKISRVEAEDVGVYYCSQSTRVPYTFGQGTKLEIK
9 | – | – | – | – | 3730 | 3.84 | AL2p-61 (antibody, IgG1, V domains shown) VH: QVQLVQSGAEVKKPGSSVKVSCKASGYAFSSQWMNWVRQAPGQGLEWMGRIYPGEGDTNYARKFQGRVTITADESTSTAYMELSSLRSEDTAVYYCARLLRNQPGESYAMDYWGQGTLVTVSS VL: GVVMTQTPLSLSVTPGQPASISCRSSQSLVHSNQYTYLHWYLQKPGQSPQLLIYKVSNRRSGVPDRFSGSGSGTDFTLKISRVEAEDVGVYYCSQSTRVPYTFGQGTKLEIK
10 | 16.5 | 2.17 | 0.34 | 1.5 | 4.8 | 4.93 | AL2p-13 (antibody, V domains shown, Fab and IgG formats under one id; also called AL22-13) VH: QVQLVQSGAEVKKPGSSVKVSCKASGYAFSSHWMNWVRQAPGQGLEWMGRIYPGDGDTNYAQKFKGRVTITADESTSTAYMELSSLRSEDTAVYYCARLLRNQPGESYAMDYWGQGTLVTVSS VL: GVVMTQTPLSLSVTPGQPASISCRSSQSLIHSNGYTYLHWYLQKPGQSPQLLIYKVSNRRSGVPDRFSGSGSGTDFTLKISRVEAEDVGVYYCSQSTRVPYTFGQGTKLEIK
11 | 23.8 | 2.13 | 0.255 | 1.4 | 4.83 | 4.62 | AL2p-17 (antibody, V domains shown, Fab and IgG formats under one id) VH: QVQLVQSGAEVKKPGSSVKVSCKASGYAFSSHWMNWVRQAPGQGLEWMGRIYPGDGDTNYAQKRQGRVTITADESTSTAYMELSSLRSEDTAVYYCARLLRNQPGESYAMDYWGQGTLVTVSS VL: DVVMTQTPLSLSVTPGQPASISCRSSRSLVHSNGYTYLHWYLQKPGQSPQLLIYKVSNRVSGVPDRFSGSGSGTDFTLKISRVEAEDVGVYYCSQSTRVPYTFGQGTKLEIK
